T1: mouse IL-2Rβ (mouse) (UniProt P16297)
T1 sequence (looked up): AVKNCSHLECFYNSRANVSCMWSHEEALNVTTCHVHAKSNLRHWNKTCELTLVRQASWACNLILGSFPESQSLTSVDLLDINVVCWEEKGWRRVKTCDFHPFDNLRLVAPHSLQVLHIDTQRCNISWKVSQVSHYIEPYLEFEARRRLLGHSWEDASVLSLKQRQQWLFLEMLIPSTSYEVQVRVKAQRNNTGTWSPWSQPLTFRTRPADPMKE

T2: human interleukin-2 receptor β-chain (IL-2Rβ; CD122), recombinant protein (human) (UniProt P14784)
T2 sequence: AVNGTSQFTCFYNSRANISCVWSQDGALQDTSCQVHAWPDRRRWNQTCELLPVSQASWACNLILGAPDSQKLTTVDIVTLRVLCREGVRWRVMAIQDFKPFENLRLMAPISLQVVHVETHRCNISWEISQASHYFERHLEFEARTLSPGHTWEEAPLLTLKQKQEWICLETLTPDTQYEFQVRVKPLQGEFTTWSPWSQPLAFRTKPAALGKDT

T3: cynomolgus monkey IL-2Rβ/CD122 subunit (cynomolgus monkey) (UniProt Q38J85)
T3 sequence (looked up): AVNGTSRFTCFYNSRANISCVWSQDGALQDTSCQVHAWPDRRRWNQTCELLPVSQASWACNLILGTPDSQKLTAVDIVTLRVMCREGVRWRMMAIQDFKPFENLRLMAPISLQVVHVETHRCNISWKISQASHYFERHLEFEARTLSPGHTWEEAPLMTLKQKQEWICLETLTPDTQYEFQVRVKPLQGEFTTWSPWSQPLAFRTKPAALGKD

T4: human common cytokine receptor γ-chain (γc; IL-2Rγ; CD132), recombinant protein (human) (UniProt P31785)
T4 sequence: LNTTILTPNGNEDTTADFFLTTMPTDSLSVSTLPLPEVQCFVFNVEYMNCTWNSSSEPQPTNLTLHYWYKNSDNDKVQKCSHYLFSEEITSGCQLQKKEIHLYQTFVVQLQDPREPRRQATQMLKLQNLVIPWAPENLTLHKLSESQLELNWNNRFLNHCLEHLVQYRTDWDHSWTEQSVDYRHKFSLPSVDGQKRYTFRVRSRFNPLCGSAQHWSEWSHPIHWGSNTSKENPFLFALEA


Columns and labels:
[1] = biological target: T1, mouse IL-2Rβ (mouse); test: P.E. binding ELISA
[2] = biological target: cynomolgus monkey IL-2Rα/CD25 subunit (cynomolgus monkey) (UniProt H6WS54); test: ELISA, monovalent VHH-hFc
Sequence of cynomolgus monkey IL-2Rα/CD25 subunit (cynomolgus monkey) (H6WS54 entry or part of it): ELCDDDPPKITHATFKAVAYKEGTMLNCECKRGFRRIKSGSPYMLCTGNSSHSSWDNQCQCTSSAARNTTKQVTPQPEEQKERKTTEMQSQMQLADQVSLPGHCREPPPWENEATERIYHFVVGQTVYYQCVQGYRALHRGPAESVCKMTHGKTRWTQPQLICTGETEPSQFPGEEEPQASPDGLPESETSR

[3] = biological target: human interleukin-2 receptor α-chain (IL-2Rα; CD25), recombinant protein (human) (UniProt P01589); test: ELISA, monovalent VHH-hFc
Sequence of human interleukin-2 receptor α-chain (IL-2Rα; CD25), recombinant protein (human) (P01589 22-240 limits assumed): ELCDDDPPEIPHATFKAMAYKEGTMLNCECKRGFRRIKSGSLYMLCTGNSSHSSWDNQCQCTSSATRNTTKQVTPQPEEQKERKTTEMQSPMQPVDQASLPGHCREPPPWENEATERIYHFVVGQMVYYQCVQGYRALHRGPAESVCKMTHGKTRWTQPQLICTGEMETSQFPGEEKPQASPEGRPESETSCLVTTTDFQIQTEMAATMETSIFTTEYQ

[4] = biological target: cynomolgus monkey IL-2Rα/CD25 subunit (cynomolgus monkey) (UniProt H6WS54); test: ELISA, monovalent; EC50 cyno vs human subunit
[5] = biological target: T2, human interleukin-2 receptor β-chain (IL-2Rβ; CD122), recombinant protein (human); test: ELISA, monovalent VHH-hFc
[6] = biological target: T3, cynomolgus monkey IL-2Rβ/CD122 subunit (cynomolgus monkey); test: ELISA, monovalent VHH-hFc
[7] = biological target: T3, cynomolgus monkey IL-2Rβ/CD122 subunit (cynomolgus monkey); test: ELISA, monovalent; EC50 cyno vs human subunit
[8] = biological target: cynomolgus monkey IL-2Rγ/CD132 subunit (cynomolgus monkey); test: ELISA, monovalent VHH-hFc
Sequence of cynomolgus monkey IL-2Rγ/CD132 subunit (cynomolgus monkey) (chain, as listed by the source): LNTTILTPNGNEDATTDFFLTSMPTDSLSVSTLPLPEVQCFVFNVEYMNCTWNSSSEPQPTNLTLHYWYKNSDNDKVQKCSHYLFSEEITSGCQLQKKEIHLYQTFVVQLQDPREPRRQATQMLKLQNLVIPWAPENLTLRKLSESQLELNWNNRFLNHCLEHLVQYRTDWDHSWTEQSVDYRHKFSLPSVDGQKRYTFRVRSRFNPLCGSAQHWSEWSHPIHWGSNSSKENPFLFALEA

[9] = biological target: T4, human common cytokine receptor γ-chain (γc; IL-2Rγ; CD132), recombinant protein (human); test: ELISA, monovalent VHH-hFc

Binder | OD450 nm [1] | EC50 [5] | EC50 [6] | Fold change [7] | other results
19-MP03F08 VHH (periplasmic extract) (VHH) VHH: EVQLVESGGGLVQTGGSLRLSCAASGGTFSRDAMAWFRQVPGKEREFVALISWSGATTNYADSVKGRFAISRDNGKNTVYLQMNRLKPADTAIYYCAADRRPMGSRSYFEPTEYDDWGQGTQVTVSS | 0.049 OD450 nm | – | – | – | –
17-MP02C09 VHH (periplasmic extract) (VHH) VHH: QVQLQESGGGLVQAGGSLRLSCVASGSVSSINGMAWYRQGADNQRVLVAAISRVGNTAYGDSVKGRFTISRQNARNTVYLQMNSLKPEDTAVYYCNADSWGGDDYWGQGTQVTVSS | 0.047 OD450 nm | – | – | – | –
11-MP05H04 VHH-hFc, monospecific monovalent (Fc fusion, part only; not given: Both Fc arms and linker, not shown: another chain or arm of the molecule; a dimerising Fc or GST; small tags and cut ends) VHH: QLQLVESGGGLVQAGGSLRLSCAASGLTFEGYAIGWFRQAPGKEREGVSYITGSDGTTYYINSVKGRFTISSDNAKSTVYLQMNTLKPEDTAVYYCAVDRLGSQGRYASAWWRSGDMDLWGKGTQVTVSS | – | – | – | – | EC50 [2]: 1250 pM; EC50 [3]: 378 pM; Fold change [4]: 3.3 fold
12-MP05B12 VHH-hFc, monospecific monovalent (Fc fusion, part only; not given: Both Fc arms and linker, not shown: another chain or arm of the molecule; a dimerising Fc or GST; small tags and cut ends) VHH: QVQLVESGGGLVQAGGSLRLSCAASGFTFDGYAIGWFRQAPGKEREGVSYITGSDGSTYYADSVKGRFTISSNNAKNTVYLHMNSLKPDDAAVYYCAIDRLGSRGAYVPIWWRSSDMDLWGKGTLVTVSS | – | – | – | – | EC50 [2]: 1100 pM; EC50 [3]: 130 pM; Fold change [4]: 8.5 fold
15-MP02E06 VHH-hFc, monospecific monovalent (Fc fusion, part only; not given: Both Fc arms and linker, not shown: another chain or arm of the molecule; a dimerising Fc or GST; small tags and cut ends) VHH: QVQLVESGGGSVQPGGSLRLSCAASGFTFSNYAMSWVRQAPGKGLEWVASITGFGRGTDYADSVKGRFTISRDNAEDTLYLQMNSLKPEDTAVYYCAKYSSSTYYPPTPARGRDYRGQGTQVTVSS | – | 640 pM | – | – | –
16-MP02B08 VHH-hFc, monospecific monovalent (Fc fusion, part only; not given: Both Fc arms and linker, not shown: another chain or arm of the molecule; a dimerising Fc or GST; large carriers; small tags and cut ends) VHH: EVQLVESGGGLVQAGGSLRLSCAASGRAIENYPVGWFRQAPGKEREFVAAITWISGSTLYADSVKGRFTISRDNAKNTVYLQMSSLKPEDTALYYCAAALKTITRGQNDYSYWGQGTQVTVSS | – | 215 pM | 280 pM | 1.3 fold | –
17-MP02C09 VHH-hFc, monospecific monovalent (Fc fusion, part only; not given: Both Fc arms and linker, not shown: another chain or arm of the molecule; a dimerising Fc or GST; large carriers; small tags and cut ends) VHH: QVQLQESGGGLVQAGGSLRLSCVASGSVSSINGMAWYRQGADNQRVLVAAISRVGNTAYGDSVKGRFTISRQNARNTVYLQMNSLKPEDTAVYYCNADSWGGDDYWGQGTQVTVSS | – | 148 pM | 495 pM | 3.3 fold | –
18-MP03C03 VHH-hFc, monospecific monovalent (Fc fusion, part only; not given: Both Fc arms and linker, not shown: another chain or arm of the molecule; a dimerising Fc or GST; large carriers; small tags and cut ends) VHH: QVQLVESGGGLVQPGGSLRLSCAISGGTLDSYGIGWVRQAPGKQREGVSCMSRSDDRTYYADSVKGRFTISKDSAKNTVYLQMTSLKPEDTAVYYCAAVDAYGCSLVQPTTYDFWGLGTQVTVSS | – | 373 pM | – | – | –
19-MP03F08 VHH-hFc, monospecific monovalent (Fc fusion, part only; not given: Both Fc arms and linker, not shown: another chain or arm of the molecule; a dimerising Fc or GST; large carriers; small tags and cut ends) VHH: EVQLVESGGGLVQTGGSLRLSCAASGGTFSRDAMAWFRQVPGKEREFVALISWSGATTNYADSVKGRFAISRDNGKNTVYLQMNRLKPADTAIYYCAADRRPMGSRSYFEPTEYDDWGQGTQVTVSS | – | 670 pM | 953 pM | 1.4 fold | –
20-MP03F10 VHH-hFc, monospecific monovalent (Fc fusion, part only; not given: Both Fc arms and linker, not shown: another chain or arm of the molecule; a dimerising Fc or GST; large carriers; small tags and cut ends) VHH: EVQLVESGGGLVQAGGSLRLSCAASGRDFSSYAMGWFRQAPGKEREFVVAITWTKRSTDFPDSVKGRFTISRDNAKNTVYLDMNSLKPEDTAVYYCASARGLPVTPLGDIIYWGEGTLVTVSS | – | 197 pM | – | – | –
22-MP03F12 VHH-hFc, monospecific monovalent (Fc fusion, part only; not given: Both Fc arms and linker, not shown: another chain or arm of the molecule; a dimerising Fc or GST; large carriers; small tags and cut ends) VHH: EVQLVESGGGLVQAGGSLRLSCAASGSIFSINAMAWFRQVPGMERELVAAISRDGGASVYRDSVKGRFTISRDNSKNTVYLQMNTLKPEDTAIYVCAATRAIGWTARWITTDFDFWGQGTQVTVSS | – | 92 pM | 156 pM | 1.7 fold | –
23-MP06F03 VHH-hFc, monospecific monovalent (Fc fusion, part only; not given: Both Fc arms and linker, not shown: another chain or arm of the molecule; a dimerising Fc or GST; large carriers; small tags and cut ends) VHH: QVQLVESGGGLVQAGGSLRLSCAVSGDVFVRYTMAWFRQAPGKEREFVASVTDSGRTTDYVHSVKGRFTVSRDNAKNTVYLQMNNLKPEDTAVYYCAANTDYFQIKSLDANTWGQGTQVTVSS | – | 174 pM | 260 pM | 1.5 fold | –
24-MP06E05 VHH-hFc, monospecific monovalent (Fc fusion, part only; not given: Both Fc arms and linker, not shown: another chain or arm of the molecule; a dimerising Fc or GST; large carriers; small tags and cut ends) VHH: QVQLVESGGELVQGGASLRLSCAASGRTFSNANMAWFRQAPEKEREFVALITWSSGSTLYADSVKGRFTISRDNARKMVYLQMNSLKPEDTAVYYCAADGPPYSGTYYRYDTYDYWGQGTQVTVSS | – | 206 pM | 657 pM | 3.2 fold | –
26-MP06A07 VHH-hFc, monospecific monovalent (Fc fusion, part only; not given: Both Fc arms and linker, not shown: another chain or arm of the molecule; a dimerising Fc or GST; large carriers; small tags and cut ends) VHH: QVQLQESGGGLVQAGGSLRLSCAASGDVFVRYTMAWFRQAPGKEREFVASVTDSGRTTEYVDSVKGRFTVSRDNAKNTAYLQMNNLKPEDTAIYYCAANTDYFQIRSLDLNTWGQGTQVTVSS | – | 86 pM | 102 pM | 1.2 fold | –
36-MP07F02 VHH-hFc, monospecific monovalent (Fc fusion, part only; not given: Both Fc arms and linker, not shown: another chain or arm of the molecule; a dimerising Fc or GST; small tags and cut ends) VHH: QVQLVESGGGLVQAGGSLRLSCAASGRTLSRYAMGWFRQAPGSEREFVAASSWGGDTFYADSVEGRFTFSRDNAKNAVYLQMNSLQPEDTAAYYCAAAPTSFPTTAYSSSNSYAYWGQGTQVTVSS | – | – | – | – | EC50 [8]: 222 pM; EC50 [9]: 145 pM
16-MP02B08 VHH (periplasmic extract) (VHH) VHH: EVQLVESGGGLVQAGGSLRLSCAASGRAIENYPVGWFRQAPGKEREFVAAITWISGSTLYADSVKGRFTISRDNAKNTVYLQMSSLKPEDTALYYCAAALKTITRGQNDYSYWGQGTQVTVSS | 0.048 OD450 nm | – | – | – | –
20-MP03F10 VHH (periplasmic extract) (VHH) VHH: EVQLVESGGGLVQAGGSLRLSCAASGRDFSSYAMGWFRQAPGKEREFVVAITWTKRSTDFPDSVKGRFTISRDNAKNTVYLDMNSLKPEDTAVYYCASARGLPVTPLGDIIYWGEGTLVTVSS | 0.048 OD450 nm | – | – | – | –
24-MP06E05 VHH (periplasmic extract) (VHH) VHH: QVQLVESGGELVQGGASLRLSCAASGRTFSNANMAWFRQAPEKEREFVALITWSSGSTLYADSVKGRFTISRDNARKMVYLQMNSLKPEDTAVYYCAADGPPYSGTYYRYDTYDYWGQGTQVTVSS | 0.046 OD450 nm | – | – | – | –
22-MP03F12 VHH (periplasmic extract) (VHH) VHH: EVQLVESGGGLVQAGGSLRLSCAASGSIFSINAMAWFRQVPGMERELVAAISRDGGASVYRDSVKGRFTISRDNSKNTVYLQMNTLKPEDTAIYVCAATRAIGWTARWITTDFDFWGQGTQVTVSS | 0.048 OD450 nm | – | – | – | –
15-MP02E06 VHH (periplasmic extract) (VHH) VHH: QVQLVESGGGSVQPGGSLRLSCAASGFTFSNYAMSWVRQAPGKGLEWVASITGFGRGTDYADSVKGRFTISRDNAEDTLYLQMNSLKPEDTAVYYCAKYSSSTYYPPTPARGRDYRGQGTQVTVSS | 0.048 OD450 nm | – | – | – | –
18-MP03C03 VHH (periplasmic extract) (VHH) VHH: QVQLVESGGGLVQPGGSLRLSCAISGGTLDSYGIGWVRQAPGKQREGVSCMSRSDDRTYYADSVKGRFTISKDSAKNTVYLQMTSLKPEDTAVYYCAAVDAYGCSLVQPTTYDFWGLGTQVTVSS | 0.048 OD450 nm | – | – | – | –
